We go through one molecule from publication PMC12658140 (2025).

Targets include H3 stem with T32HA2 (influenza A virus H3N2 …); H3 stem with R32HA2 (influenza A virus H3N2 …); H3 stem with I32HA2 (influenza A virus H3N2 …).
What all share (assay): BLI

B1: 240-14 IgA 2F02 Fab (Fab, V domains shown)
VH: EVQLLESGGGLVQPGGSLRLSCAASGFTFSTYAMSWVRQAPGKGLEWVSTISGSGGSTYDAESVKGRFTISRDNSKNTLYLQMNSLRAEDTAVYYCAKEGGDFWSGYYANWFDPWGQGTLVTVSS
VL: QSALTQPRSVSGSPGQSVTISCTGTRSDVGGYNYVSWYQQHPGKAPKVIIYDVKKRPSGVPDRFSGSKSGNTASLTISGLQAEDEADYYCSAFAGSHTLFGGGTKVTVL
As to B1, the values for the Kd with H3 stem with T32HA2, in the assay with H3 stem with R32HA2 and with H3 stem with I32HA2 were 17 nM, 28 nM and 22 nM, respectively.
